Measured values taken from patent publication US20010046665A1, “Method of identifying the function of a test agent” (priority 2000, published 2001).

Legend:
Assay type in all cases: cell-based
Design in all cases: key: *: up in IL-1α treatment; **: up in OPG treatment, down in thrombopoietin treatment; ***: up in IFNγ treatment; ****: up in IL-6 treatment
[1] = test system: MG-63, Osteosarcoma; experiment: GeneCalling confirmation of gene expression changes in MG-63 cells; details: confirmed by GeneCalling; for Collagen gene expression change: up with OPG, down with thrombopoietin
[2] = test system: TF-1, Erythroleukemia; experiment: GeneCalling confirmation of gene expression changes in TF-1 cells; details: confirmed by GeneCalling
[3] = test system: U-87MG, Astrocytoma; experiment: GeneCalling confirmation of gene expression changes in U-87MG cells; details: confirmed by GeneCalling

## thrombopoietin: known protein used to treat the indicated cell lines in GeneCalling confirmation
[1]
  Collagen gene expression change: Collagen**

## IL-6: known protein used to treat the indicated cell lines in GeneCalling confirmation
[2]
  ICAM-1 gene expression change: ICAM-1****

B1: IFNγ: known protein used to treat the indicated cell lines in GeneCalling confirmation (protein, UniProt P01579 24-161, looked up)
Interferon gamma: QDPYVKEAENLKKYFNAGHSDVADNGTLFLGILKNWKEESDRKIMQSQIVSFYFKLFKNFKDDQSIQKSVETIKEDMNVKFFNSNKKKRDDFEKLTNYSVTDLNVQRKAIHELIQVMAELSPAAKTGKRKRSQMLFRG
[3]
  IRF-1 gene expression change: IRF-1***
[2]
  IRF-1 gene expression change: IRF-1***

B2: IL-1α: known protein used to treat the indicated cell lines in GeneCalling confirmation (protein, UniProt P01583 113-271, looked up)
Interleukin-1 alpha: SAPFSFLSNVKYNFMRIIKYEFILNDALNQSIIRANDQYLTAAALHNLDEAVKFDMGAYKSSKDDAKITVILRISKTQLYVTAQDEDQPVLLKEMPEIPKTITGSETNLLFFWETHGTKNYFTSVAHPNLFIATKQDYWVCLAGGPPSITDFQILENQA
[1]
  Factor B gene expression change: Factor B*
  IL-8 gene expression change: IL-8*
  IRF-1 gene expression change: IRF-1*
  LOX gene expression change: LOX*
  MxA gene expression change: MxA*
  TAP-1 gene expression change: TAP-1*
[3]
  IL-8 gene expression change: IL-8*
  MCP-1 gene expression change: MCP-1*
  Tenascin-c gene expression change: Tenascin-c*

B3: OPG: known protein used to treat the indicated cell lines in GeneCalling confirmation (protein, UniProt O00300 22-401, looked up)
Tumor necrosis factor …: ETFPPKYLHYDEETSHQLLCDKCPPGTYLKQHCTAKWKTVCAPCPDHYYTDSWHTSDECLYCSPVCKELQYVKQECNRTHNRVCECKEGRYLEIEFCLKHRSCPPGFGVVQAGTPERNTVCKRCPDGFFSNETSSKAPCRKHTNCSVFGLLLTQKGNATHDNICSGNSESTQKCGIDVTLCEEAFFRFAVPTKFTPNWLSVLVDNLPGTKVNAESVERIKRQHSSQEQTFQLLKLWKHQNKDQDIVKKIIQDIDLCENSVQRHIGHANLTFEQLRSLMESLPGKKVGAEDIEKTIKACKPSDQILKLLSLWRIKNGDQDTLKGLMHALKHSKTYHFPKTVTQSLKKTIRFLHSFTMYKLYQKLFLEMIGNQVQSVKISCL
[1]
  Collagen gene expression change: Collagen**
